The nature of this data set: soluble fraction after stress (log2 fold change); higher = more stays soluble; pooled small domains, quantitative proteomics. To be noted: stress: pH 4. An outline of the steps: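 Pooled custom libraries of small protein domains were stressed at pH 4 and then measured by high-throughput quantitative proteomics. The fold change in the amount of each domain that stays soluble after the acid stress serves as a measure of aggregation propensity. Fold changes are given on a log2 scale, and higher values mean more of the domain stayed soluble.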

A value given as a limit tells only on which side of the number the result lay.

As for “HMSERIITFGEATREAMLEEMRADERVFVYGEDIAKQGGIFGQFAGMKDEFPERVLDTPISETALVGAG”, the “soluble fraction (log2)” value was -0.679. With “HMSERVVVPDLTGKDLVAAQSELREISLAGREEGPGDKVRRQFPVAGVKVPKDTVVILYTED”, the “soluble fraction (log2)” value was found to be 0.117.

With “HMSESAGKALDILFYLARVEDEVSLARLSKETGMNKATALRYLAVLESWGVVEKRPSGWSLGLSLFELGSK”, the “soluble fraction (log2)” value is -1.03. Next, “HMSESGTFRAEAADAGRRLDVALAERLRLSRAAAQRLIAAGLVLVEGSPARKRQILHAGETVAWRAAPP”: -0.0686; “HMSESLLTAAGFKTIAATTPEQKRHLEWLHPDQVTAVQLTGQHYYVYPDVAKSQLFVGTPKEYQAYLALRT”: 0.00516. In the case of “HMSESLRDLVLSLIPEDGSTIGNRALITRLREDLPDLTDEDYHEVRDQLIAEGVLAKGRGQGGSVARANG”, the “soluble fraction (log2)” value is 0.0415. For the sequence “HMSETIVFGQQKAINTLSSEAGLSSAELNNYLKKRYQRPLFQLTVSEGADLIQGFQDGTLTKASITQYVSQ”, the “soluble fraction (log2)” value was determined as 0.22. As for “HMSETQDQTTIEIEDMITVGTLAERLSIPVSTLIGELMKNGVMATVNEKIDFDTAQIIVGELKLPIELSKK”, the “soluble fraction (log2)” value is -0.269.

Regarding “HMSEYEYALHEFGITKKQSQRIFDRLSIADLEERINAIQTTLKQRSDIDNPAAYAWTVLNAE”, the “soluble fraction (log2)” value is -0.767.

On to “HMSEYLDIHMAMEKLNRKEQLFVHLRFYEGLTQSEIAQRLFTSQVQISRLEKSVLEKMRQILSK”, for which the “soluble fraction (log2)” value is -0.91.

Take “HMSEYTRGELVSSLEAGEVAAVSIRPNRETPTGEAQIVLSDGQHRVLYVTDVREIEELVSSYGLNPQVEK”: the “soluble fraction (log2)” value is -0.233. Next, “HMSFDNIKVGYISETAGYVKGISLADANEYAKLNPDTEFIFIDGDEKVRFLTINEVNGLTPKNLLRSDP”: -1.6. Consider “HMSFGFFELKSSDTDKLFAYLNNNEHFGNIKEENGLVTAFLTSELDAQTLNKLLFDNGIIASHLVKRK”, for which the “soluble fraction (log2)” value is -1.82. Take “HMSFMPDPSIHDAITYTVRSGDYLGKISTTFGVKVSDLQKWNSIKSNIIYPGQKLTVWVSSNKRESLQ”: the “soluble fraction (log2)” value came to 0.194. “HMSFPLKRGSKGNRVTQLQNALVKKFGASILPKYGVDGMFGKEVEAALVRAKLPTSINESTYNSFV”: the “soluble fraction (log2)” value was -0.0036. For “HMSFVAYEEEKAIGMVRLIGDGGMSFYIKDFAVLPGHQGKGVGQMLLMELQQYLLEHKPADWAVSLE”, the “soluble fraction (log2)” value was -1.47. As for “HMSGAKLLAPVTGTLLRYTVAEGTKVSEGQTVIMLESMKMELEINAHKAGVIHFTAAAGAQVAEGDSLAEI”, the “soluble fraction (log2)” value is -0.419. For “HMSGDKKLQMNLILEFAQQNESFRTKDIEELLQIRSSRARKLISDLVTEGRLEALGENRNRRYQLI”, the “soluble fraction (log2)” value is -0.329. With “HMSGDYRALYSSLPPERASSVVDALNVAGIPYRIQDSTGAIMVPAEQIYDARIRLAGQGLGK”, the “soluble fraction (log2)” value is 0.0695.

As for “HMSGEPKNERQIEVPDVTKKSIREANNILTSEGLRLRIEGTGLAVSQKPAAGTMVEPDTIITVTFQAP”, the “soluble fraction (log2)” value is -0.0704. Consider “HMSGHEVMVQRITAIIAELYQYGFVSRKKMMDEFNISERTLYRDLNRLGDRIVPDGDGIYRLAPAYA”, for which the “soluble fraction (log2)” value was -0.954. Next, “HMSGHIPGIKIKGVIFFDKGSSSNHIIATTENNSNLKLRVGETVQGAVLKSIHPNHVIFFHHNQLIEVGIG”: 0.0374; “HMSGKGEFDQLLRSGEYVQAFQRANANGNVTLRRQQLLNLARHQAASGVGSGAIESLSTIQRI”: 0.104; “HMSGKMTVPNVVGKTETEAKSALSAKGFTNVRTETVDSTEAAGTVVKQSLDADSVQDPKTEIVLSVSNG”: ≥ 0.43.

Consider “HMSGKWKIRILWYIAEYEVQRFGELRRRLGDITQSTLTEQLRELEQDGFVSRYVYQEVPSKVEYSLTE”, for which the “soluble fraction (log2)” value was -0.0562. For the sequence “HMSGKWSILILHALEQGPKRFNVLHRELSGITQATLTKQLRQLEEDGIILRKAYPQIPPKVEYQLTEIG”, the “soluble fraction (log2)” value stood at 0.112. Turning to “HMSGNPLDTYYSKWSAEIKKGSPNAVISKEGDKYYVSIPGENRMAIIYENPHLIRMVNATRNIHVE”, the “soluble fraction (log2)” value was found to be 0.0911. Regarding “HMSGPSDRDLFDEALALLSGSGREPDYHEARIRLGTLVEQFPESKWAEGAKALLSMLDRVSALQV”, the “soluble fraction (log2)” value is -0.673.

For “HMSGPVITEERNIANALISGLANMKETPTREQVERKAQQIAELFGYTGDLRNIITEAMISVDT”, the “soluble fraction (log2)” value was -0.137. Take “HMSGRPPTYTAEERSAVIAAALSRPADLGLPFASWTLDRLVAYLGEKGIGMKRSRMSEVLLAEGLKW”: the “soluble fraction (log2)” value is -0.0116.

Consider “HMSGSGYAYVDKYGYSHVVKDYDTAKNYASDGNVYNYSGSHKGGYAYDADNYRVPLDLPGSKPYG”, for which the “soluble fraction (log2)” value was -0.183. As for “HMSGSIIQQAENLERQFGDTREAILGTLSDPKMSEEILETLMERYNKQHGTNWDKNTWAEEWAKANK”, the “soluble fraction (log2)” value was -0.355. Regarding “HMSGSILVQVSATDLNIRKGPGTNYGTTGKYTGKGTFTIVETRSGQGSNAGWGKLKSGAGWISLDYAKR”, the “soluble fraction (log2)” value is -0.0233. Consider “HMSGTESMIEGRGEARTAIDGEGKVFFQGEYWTAQSDQFIPQGAKVRIKKVEGLNLIVEEIK”, for which the “soluble fraction (log2)” value was -0.796.

For “HMSGTYIVTVQANTLDIYKSMTSNDTIGKANKGDVFQILEDMGGGYAKVSYNDVEGYISIKDGDTSIDEM”, the “soluble fraction (log2)” value was -1.29. As for “HMSGVIVPDIYNKTLAEAVASLEGEGFSTEKKEGYSDTVPKGNVMSQKPEAGTSAERGSTVTITISQGPQ”, the “soluble fraction (log2)” value was -0.0347. As to “HMSGWIATGTATSTGNDVRVRSTPDATVNNNILLTLNKGNRFEIDGQTQNGFYHIKVNDTIGWISGLYVKE”, the “soluble fraction (log2)” value was 0.0378. As for “HMSGYFSDKKLNELFEQYLIMREKKGKPVVGYQLKILIDRLNQVAANTKEKIEVVSNAIAGDWNTFYPIKR”, the “soluble fraction (log2)” value was 0.0685. For “HMSHDTLVYRLAQMLVKLNQGEKLDPQQLAEEFGVNLRTIQRDLNVRFAYLQLEKTDGRYHLDPTFL”, the “soluble fraction (log2)” value is -0.241. In the case of “HMSHLTKKQEEVLLFIRDYYEEEGRSPSYSDIQHHFGLKSKSSVQDYIGYLKKAGFLQKSVGSRAIELV”, the “soluble fraction (log2)” value was ≥ 0.43. As for “HMSHQIIIVAVELDPSTERIVYYLSKNGISINVLFFKVFQHGDEQFLSRVWLIDPSETQTNAALA”, the “soluble fraction (log2)” value was -0.424. For the sequence “HMSIESMVGRFGVVTKDVVANEMAGKVKVGREEFRATADIAVSSGTKVKVTHAEGITLTVVPE”, the “soluble fraction (log2)” value came out at 0.0258. For “HMSIGKEATPDDIVPNIRVYHATFGYGNVIKTDGVSHDKKAVVNFDSVGEKTLLLKFAKLILPY”, the “soluble fraction (log2)” value was -0.754. In the case of “HMSIGLEGFVGKLGISTSDLRPSGWGEFDAKKLFVVTEGEFVDRKEKIEILSVDGNRILVRKIS”, the “soluble fraction (log2)” value was -0.471. Next, “HMSILPGVYRHYKGNHYQVFYLAKHSETLEDMVVYQALYGERGIWVRPASMWNETVDDQGKQVKRFTYI”: -1.22; “HMSILYNAVKGTLVSSGALTADSWYKISSFGTASALPALKVGSIFKTPEGAGDAITLASGDSVYPLTLT”: 0.021; “HMSINQTIEGKKQGYWIIYGNMRNLQEYLSNEVIEEGQFKNSRKEGVWRKYFPGGQMKSEITYINGRP”: -0.93.

On to “HMSINTIIAKNLNRLRNERNLSLGQLAELSGVSKVMLSQIEKGDSNPTVNTIWKIASGLNVPYTAILDQP”, for which the “soluble fraction (log2)” value is 0.22.

Regarding “HMSIPVLKDGTYESWGNEKVYKVGDRVMVGSNGYVAKWWNQDETPEKAIINPNDSPWRPMTESEIMEVLK”, the “soluble fraction (log2)” value was -0.113. In the case of “HMSISEADAKKIALEKVPGATDSNLRIKTDYDDGIMKYEVKIVYNEMKYEFDIDAATGTILEWESESVY”, the “soluble fraction (log2)” value was 0.277. Consider “HMSISSSEAARSAVASSGGTVLGVSKASHGGYKAWAVRIQRADGSVVTGYVDRASGTVYDWVVNQAA”, for which the “soluble fraction (log2)” value was 0.379.

As to “HMSKEDDSLVVTFRRMLLEEVDLHELSRIDANQRRARLERVIAHLVSREGVILSASERNQLVRRVVDEAV”, the “soluble fraction (log2)” value is -0.801. Next, “HMSKEEAIQAMKEGKKVTHRFFSSDEWMTIENGFLLLEDGVRISLEDFFNFRSDSLWDNGYELYNPH”: -0.768; “HMSKFSDTLVYLRKRAGFSQQELADKMEVSRSLVGMYESGQRMPSYEMLEALADIFNVNIDFLTGH”: -0.586; “HMSKIRSEINKFSSDADKPILEWLFERYHWASQWRFVARFSEQRYGVLSYEINRVWEPTIEGRALYDQL”: -1.45.

For the sequence “HMSKKMLASIFDTISGIGKKRLKKIWDNYTSLNELKDDSLENIYAKTQIPINLITKIKEKLE”, the “soluble fraction (log2)” value was ≥ 0.43.

Consider “HMSKKMTNEEILNFLKKVLIKHGKISGFIIDEDDNGPSSSVVASRFGGLLNAYKLINYTPER”, for which the “soluble fraction (log2)” value was ≥ 0.43. “HMSKMTLGENLRLLRREKGLSQEQVAQTLFVARQTISKWENGQAEPGVESLKALAKLYGVSLDRLVGA”: the “soluble fraction (log2)” value is -0.324.

In the case of “HMSKPLEVFKLTSEPFGFSFNTALGRSYTVEATGDLGVWKAVELFQGSGGEIRFTAKPTSSGGAQFFRVFV”, the “soluble fraction (log2)” value is -0.225. Next, “HMSKPVYILINKPKGFLASSTDKKVKKSVNDLINISNLNKIYPFDNMGRTSSGLLLLSNDLYFKKHFKDKI”: 0.209; “HMSKQKRIKYFLSILNIKSIKQFRKKDLDYFYQKRFIEIQKSSKDKKLVSNQLIELNAAKEYLDEIDFEN”: 0.295. Under “HMSKQQVRSILDDIPNIGETRRKALMRQFQSLEKIREASVGQLREVDGMNEKAAQSVYQFFHK” stands 0.108; under “HMSKQVDVVIYILENTKAADNTYIGTYRKTADGAGVSLDTATKVMRKLQENNFIKKVQNGVYQISPLIMM”, -0.519; under “HMSKRDDLLDQASEWLAKLDRDLTVVEERELKAWLGESAAHRETFIQMAKLWDKMESLSRLTDL”, -1.06.

Consider “HMSKSVEQRRQQIVAWVKEHGQSQVEDLAVRFATSEVTIRKDLAALSQQGLLIRQFGGAVPVPA”, for which the “soluble fraction (log2)” value was 0.119. As to “HMSKTQYTFKEVGSQFQLFAPSTKHTIMISADHPKYGWLTNQDQGRVINVYDTGKMTSSQDYYGLYKEVT”, the “soluble fraction (log2)” value was -0.589.

Take “HMSKTQYTFREVGSQFELHAPSTNHKIMVDANHPKYGWLSSQEAGRVINVYESGKMTSSQDYYGLYKQS”: the “soluble fraction (log2)” value is -0.427. As to “HMSLANTSVKEMLNDLVKNEEPSKPLSDEALVKIFKEKGVKIARRTVAKYRAELNILPSHLRRT”, the “soluble fraction (log2)” value was -0.116. With “HMSLAVFLQGLLEEKQLKKADVIRRTGMEPTYGYHIFDGHKKHPARSKVLLLALAMGLTVKEAQHLLYYAG”, the “soluble fraction (log2)” value is -0.544.
